In patent US20220290139A1, “METHODS AND COMPOSITIONS FOR GENE SPECIFIC DEMETHYLATION AND ACTIVATION” (NATIONAL UNIVERSITY OF SINGAPORE, priority 2019, published 2022):
Entries after “also recorded” stand apart in the source; their conditions may differ.

How the values were obtained:
P16 promoter = assay: p16 methylation (MSP/COBRA) after transient transfection; type: cell-based, human; details: SNU-398, transient co-transfection with dCas9, guide G2, 72 hours
Source text: (§1) In this example, a modified CRISPR/dCAS9 system for gene activation and demethylation was developed and tested with P16. The DiR localized in CEBPA locus (ecCEBPA) is repurposed to other specific gene target(s) for demethylation and reactivation. The RNA stem-loops (R2 and R5), interacting with DNMT1(1), were fused to the tetra- and stem-loop 2 in a single guide RNA (sgRNA) scaffold to obtain a modified sgRNA (MsgRNA, sgDiR in FIG. 1, also referred to as MsgDiR6 in Example 3 below). The hepatocellular carcinoma (HCC) cell line SNU-398, in which P16 is silenced by promoter methylation, was transiently transfected with dCas9 plasmid and one MsgRNA (using guide G2: […] (SEQ ID NO: 29), MsgRNA with guide G2 is shown as G2sgDiR in FIG. 1, as targeting portion) targeting the template strand of P16 promoter.
(§2) SNU-398 cells were seeded at a density of […] in 6-well plates 24 hours before transfection employing jetPRIME transfection reagent (Polyplus Transfection) as described by the manufacturer. 2 μg mix of sgRNA/MsgDiR and dCas9 plasmid(s) (sgRNA/MsgDiR: dCas9 molar ratio 1:1) were transfected into each well of cells. The culture medium was changed 12 hours after transfection. Alternatively, the Neon™ Transfection System (Thermo Fisher) was used for cell electroporation according to the manufacturer's instructions. The same plasmid amount and ratios were used in the Neon as in the jetPRIME transfection. The parameters used for the highest SNU-398 transfection efficiency were 0.7 to 1.5 million cells in 100 μl reagent, voltage 1550 V, width 35 ms and 1 pulse. The culture medium was changed 24 hours after transfection.
The methylation profiles of the p16 gene locus or the whole genome were assessed by bisulfite-conversion based assays. For DNA bisulfite conversion, 1.6-1.8 μg of genomic DNA of each sample was converted by the EpiTect Bisulfite Kit (Qiagen) following the manufacturer's instructions.
For Methylation-Specific PCR (MSP), both methylation specific primers and unmethylation specific primers of p16 were used for the PCR of the same bisulfite converted sample (the transient transfection samples in the sgRNA and MsgDiR1-8 screening assay). […] 7 min, 4° C. hold. […] 7 min, 4° C. hold. […] 7 min, 4° C. hold.

P16 = assay: p16 mRNA qRT-PCR after transient transfection of sgRNA/MsgDiR with or without dCas9; type: cell-based, human; details: SNU-398, 72 hours; for P16 mRNA expression (qRT-PCR): transient co-transfection with dCas9, guide G2
Source text: as §1
This study transiently transfected dCas9 plasmid together with one MsgRNA plasmid (G2sgDiR) to SNU398 cells, culturing three days without selection for the positively transfected cells. Guide G2 targets one site in the template strand (also known as antisense strand) of P16 promoter; and was initially chosen for two reasons: 1) the sequence is one of the three guides used in a P16 gene study (3), and 2) G2 targets the P16 promoter region, the methylation and demethylation of which has been considered as an important factor for gene regulation.
All measurements were performed in triplicate.
as §2

B1: MsgRNA: Example 1 modified sgRNA, guide G2, R2 in tetra-loop and R5 in stem loop 2, SEQ ID NO: 15; used with dCas9 (nucleic acid)
guide: GCACUCAAACACGCCUUUGCGUUUUAGAGCUACCCGGGACGCGGGUCCGGGACAGUAGCAAGUUAAAAUAAGGCUAGUCCGUUAUCAACUUCUGAGGCCUUGGCGAGGCUUCUAAGUGGCACCGAGUCGGUGCUUUUUU
modifications: MsgRNA
notes: used with dCas9
In the case of B1, the “P16 DNA methylation / demethylation” value (P16 promoter) is reported as “loss of DNA methylation”, the “P16 DNA methylation / demethylation” value (P16 promoter; listed as CRISPR-R2R5 system) is reported as “demethylation” and the “P16 mRNA expression (qRT-PCR)” value (P16) is reported as “two-fold increase”. For the same molecule, the “P16 mRNA expression (qRT-PCR)” value (P16; listed as CRISPR-R2R5 system) was “moderate gene activation”.

B2: MsgDiR6: R2-R5 modified sgRNA scaffold (CRISPR-DiR), SEQ ID NO: 53; tested with guide G2 (nucleic acid)
guide: NNNNNNNNNNNNNNNNNNNGUUUGAGAGCUACCCGGGACGCGGGUCCGGGACAGUAGCAAGUUCAAAUAAGGCUAGUCCGUUAUCAACUUCUGAGGCCUUGGCGAGGCUUCUAAGUGGCACCGAGUCGGUGCUUUUUU
modifications: MsgDiR6 R2-R5 Sequence; (1)..(19) n is a, c, g, or u
notes: tested with guide G2
For B2, the “P16 DNA methylation / demethylation” value (P16 promoter) was “induces P16 demethylation”, the “P16 mRNA expression (qRT-PCR)” value (P16) was “moderate activation of p16; also recorded: moderate gene activation” and the “P16 mRNA expression (qRT-PCR)” value (P16; listed as sgDiR (G2)) was “moderate activation”. The “p16 activation in absence of dCas9” value (P16; transient transfection without dCas9) was “no effects”.

B3: MsgDiR7: R2-R2 modified sgRNA, SEQ ID NO: 54 (nucleic acid)
guide: NNNNNNNNNNNNNNNNNNNGUUUGAGAGCUACCCGGGACGCGGGUCCGGGACAGUAGCAAGUUCAAAUAAGGCUAGUCCGUUAUCAACUUCCCGGGACGCGGGUCCGGGACAGAAGUGGCACCGAGUCGGUGCUUUUUU
modifications: MsgDiR7 R2-R2 Sequence; (1)..(19) n is a, c, g, or u
B3 was tested, and the “P16 DNA methylation / demethylation” value (P16 promoter) was “not effective”.
